Assay results taken from PMC9835395.

Target: albumin (on albumin-functionalized agarose resin) (UniProt P07724)
Experiment: pull-down; AF647-labelled eOD or amph-eOD incubated with albumin-functionalized agarose resin for 2 hours at 37°C; resin separated and protein remaining in solution measured

Sequence of UniProt P07724 (P07724 25-608): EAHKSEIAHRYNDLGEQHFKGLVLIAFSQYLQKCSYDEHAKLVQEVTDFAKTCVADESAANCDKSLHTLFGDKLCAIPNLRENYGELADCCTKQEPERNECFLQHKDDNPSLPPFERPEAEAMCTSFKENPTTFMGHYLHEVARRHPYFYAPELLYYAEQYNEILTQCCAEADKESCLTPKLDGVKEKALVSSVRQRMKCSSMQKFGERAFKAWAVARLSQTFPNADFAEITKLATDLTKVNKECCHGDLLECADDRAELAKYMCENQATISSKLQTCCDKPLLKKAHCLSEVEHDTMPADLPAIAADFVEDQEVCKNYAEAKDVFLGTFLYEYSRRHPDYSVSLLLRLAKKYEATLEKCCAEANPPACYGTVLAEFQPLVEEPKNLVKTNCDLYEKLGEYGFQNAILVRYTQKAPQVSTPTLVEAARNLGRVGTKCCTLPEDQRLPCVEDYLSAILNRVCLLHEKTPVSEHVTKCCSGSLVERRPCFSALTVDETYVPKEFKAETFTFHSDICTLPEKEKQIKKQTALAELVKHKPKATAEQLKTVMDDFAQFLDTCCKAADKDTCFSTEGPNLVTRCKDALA

amph-eOD (eOD-GT8 with N-terminal cysteine and C-terminal PADRE, conjugated to PEG2K-DSPE)
percent of added protein bound to the resin: 60%
